# From patent publication US7579186 (Amgen, dated 2009)
# T1: rat TβRII expressed on the cell surface of rat kidney-derived fibroblast cell line NRK-49F (rat, UniProt P38438 24-567)
# T1 construct: whole, on cells
# T1 sequence (looked up): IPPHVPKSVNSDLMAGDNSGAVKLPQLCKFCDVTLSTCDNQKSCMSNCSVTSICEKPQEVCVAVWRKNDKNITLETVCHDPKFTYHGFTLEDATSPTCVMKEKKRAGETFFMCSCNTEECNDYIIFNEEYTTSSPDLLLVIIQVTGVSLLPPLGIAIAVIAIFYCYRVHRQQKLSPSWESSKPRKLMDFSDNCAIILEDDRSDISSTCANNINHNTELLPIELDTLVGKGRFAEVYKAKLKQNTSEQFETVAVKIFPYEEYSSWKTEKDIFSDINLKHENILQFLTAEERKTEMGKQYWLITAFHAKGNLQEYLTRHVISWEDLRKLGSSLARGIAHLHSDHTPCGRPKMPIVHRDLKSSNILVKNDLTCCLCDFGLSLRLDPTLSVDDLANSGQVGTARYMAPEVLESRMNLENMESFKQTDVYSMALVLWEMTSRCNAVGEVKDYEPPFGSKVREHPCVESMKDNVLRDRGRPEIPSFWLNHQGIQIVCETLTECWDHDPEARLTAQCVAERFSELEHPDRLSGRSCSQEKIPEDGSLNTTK
# B1: commercially available soluble recombinant human TβRII (R&D) (receptor, UniProt P37173 23-159, looked up)
# chain: TIPPHVQKSVNNDMIVTDNNGAVKFPQLCKFCDVRFSTCDNQKSCMSNCSITSICEKPQEVCVAVWRKNDENITLETVCHDPKLPYHDFILEDAASPKCIMKEKKKPGETFFMCSCSSDECNDNIIFSEEYNTSNPD
# notes: Bought product; also called standard substance
# B2: human anti-human TβRII monoclonal antibody TR4C175 (antibody, V domains shown)
# VH: EVQLVESGGGLVKPGGSLRLSCAASGFTFSSFSMNWVRQAPGKGLEWVSSISSSSSYIYYTDSVKGRFTISRDNAKNSLYLQMNSLRAEDTAVYYCARGYWGFDYWGQGTLVTVSS
# VL: DIQMTQSPSSLSASVGDRVTITCRASQGIRNDLGWYQQKPGKAPKRLIYAASSLQSGVPSRFSGSASGTEFTLTISSLQPEDFATYYCLQHNSNPLTFGGGTKVEIKR
# notes: Human IgG4/kappa purified from hybridoma supernatant (transgenic mouse); VH gene 3-21 (DP-77), VL gene A30; The stated signal residues must be removed from the entries; also called Clone TR4C175; TRC175
# B3: human anti-human TβRII monoclonal antibody TR4D455 (antibody, human IgG4, V domains shown)
# VH: EVQLVQSGAEVKKPGESLKISCKGSGYSFTSYWIGWVRQMPGKGLEWMGIIYPGDSDTRYSPSFQGQVTISADKSISTAYLQWSSLKASDTAMYYCARVGGCSGGSCYLWGQGNLVTVSS
# VL: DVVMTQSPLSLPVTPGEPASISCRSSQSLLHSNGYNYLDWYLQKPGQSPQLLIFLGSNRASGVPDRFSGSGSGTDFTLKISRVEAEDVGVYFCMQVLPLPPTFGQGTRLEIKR
# notes: Human IgG4/kappa purified from hybridoma supernatant; VH gene 5-51 (DP-73), VL gene A19 (DPK-15); The stated signal residues must be removed from the entries; also called Clone TR4D455
# Legend:
# [1] = molecular target: T2, goat anti-human TβRII polyclonal antibody (R&D); assay: sandwich ELISA: goat anti-human TβRII polyclonal antibody coated, soluble TβRII titrated, detection with the biotin-labeled goat anti-human TβRII polyclonal antibody and streptavidin-β-galactosidase (fluorescence)
# T2 construct: Polyclonal reagent; also called anti-human soluble TβRII polyclonal antibody (R&D); commercially available anti-human TβRII polyclonal antibody
# Description: Establishment of a Quantitative Method with Sandwich ELISA for Human Soluble TβRII <1-1> Establishment of a Sandwich ELISA System to Quantify Soluble Recombinant Human TβRII Goat anti-human TβRII polyclonal antibody (R&D) was diluted with phosphate buffer, and added to each well of a 96-well ELISA microplate (Corning) at a concentration of 0.1 μg/50 μl/well. The plate was incubated at room temperature for one hour to allow adsorption of the polyclonal antibody.
# The assay sample was added to each well of the antibody-immobilized microplate (50 μl/well), and the plate was incubated at room temperature for one hour. Then, the microplate was washed three times with phosphate buffer containing 0.1% Tween20. Biotin-labeled goat anti-human TβRII polyclonal antibody (R&D) (diluted with phosphate buffer containing 1% BSA and 0.1% Tween20) was then added to each well at a concentration of 0.025 μg/50 μl/well. The plate was incubated at room temperature for one hour.
# A calibration curve was prepared with the sandwich ELISA established in Example <1-1> using commercially available soluble recombinant human TβRII (R&D) as a standard.
# [2] = molecular target: T3, purified soluble recombinant human TβRII (extracellular domain of human TGF-β type II receptor, prepared in … (human, UniProt P37173 23-159)); assay: SPR (Biacore X), soluble TβRII immobilised on the chip, antibody injected
# T3 construct: The range 1-159 is as printed; also called purified human soluble TβRII; purified soluble human TβRII
# Description: HBS buffer (containing 0.01 M HEPES, 0.15 M NaCl, 3 mM EDTA, and 0-0.005% Detergent P20, pH 7.0) was injected through a flow cell-1 attached to the kit at a flow rate of 5 μl/min. Then, 35 μl of a solution consisting of 0.005 M NHS (N-hydroxysuccinimide) and 0.2 M EDC (N-ethyl-N'-(dimethylaminopropyl)carbodiimide) was injected to activate the carboxyl groups of the CM coated on the sensor chip.
# Then, 70 μl of purified soluble human TβRII (30 μg/ml; dissolved in 10 mM sodium acetate buffer (pH 5.0)) prepared in Example 2 was injected over the chip to be immobilized on the sensor chip.
# Phosphate buffer was injected to the flow cell (sensor chip) at a flow rate of 20 μl/minute, and each of the purified human anti-human TGF-β type II receptor monoclonal antibody prepared in the above Example (40 to 100 μg/ml, 60 μl) was added thereto.
# [3] = molecular target: T1, rat TβRII expressed on the cell surface …; assay: flow cytometry on rat kidney-derived fibroblast cell line NRK-49F, antibody at 5 µg/ml, biotin-labeled anti-human immunoglobulin (Fc) antibody and streptavidin-PE [d]
# Description: (§1) Further, similarly, the reactivity against rat TβRII of each of the various human anti-human TβRII monoclonal antibodies was analyzed by cell staining (by flow cytometry) using rat kidney-derived fibroblast cell line NRK-49F (ATCC CRL-1570) expressing rat TβRII on cell surface.
# (§2) Each of the human anti-human TβRII monoclonal antibodies of the present invention or commercially available goat anti-human TβRII polyclonal antibody (R&D) (300 μl, 5 μg/ml) (diluted with phosphate buffer containing 0.1% BSA) was added to the respective cells (1 to 2 ×10^4 cells). The mixtures were incubated at 4° C. for one hour, and then centrifuged (at 1,500 rpm for three minutes). The supernatants were discarded, and the cells were washed twice with phosphate buffer. The biotin-labeled anti-human immunoglobulin (Fc) antibody (200 μl; American Qualex International Inc.) was added to the samples containing the human antibodies. The biotin-labeled anti-goat immunoglobulin antibody (200 μl; Amersham Pharmacia) was added to the samples containing the goat antibody. The samples were incubated at 4° C. for one hour.
# (§3) Then, each sample was centrifuged (at 1,500 rpm for three minutes), and the supernatant was discarded. […] The samples were fluorescently analyzed with FACStar fluorescence-activated cell sorter (Becton Dickinson) (fluorescence wavelength: a DF585/42 filter, excitation wavelength: 488 nm).
# [4] = molecular target: T1, rat TβRII expressed on the cell surface …; assay: flow cytometry on rat kidney-derived fibroblast cell line NRK-49F, antibody at 5 µg/ml, biotin-labeled anti-human immunoglobulin (Fc) antibody and streptavidin-PE [f]
# Description: as §1, §2, §3
EC50 (read off the curve) [1],Kd [2],koff [2],binding result [3],binding result [4],Binder
~2 ng/mL,,,,,B1
,51 nM,0.014 s⁻¹,binds,,B2
,3.4 nM,0.00012 s⁻¹,,binds,B3
